Measured values reported in PMC5472591, “Mechanical stability of talin rod controls cell migration and substrate sensing” (Scientific Reports, 2017).

Biological target: the molecule itself
Assay: SEC-MALS; SEC on Superdex 200 10/300 GL with inline right angle / static light scattering detector; 200 ug protein injected; 50 mM NaH3PO4, 150 mM NaCl pH 7.2; 0.5 ml/min; 20 °C; detector calibrated with the monomeric peak of BSA

B1: talin-1 rod R3 subdomain fragment (amino acids 795-911) 4S mutant, His6-tagged (domain or fragment, mouse)
chain: SSSGPSASGTGAGRYDQATDTSLTVTENSFSSMGDAGEMVRQARILAQATSDLVNAIKADAEGESDLENSRKLLSAAKILADATAKMVEAAKGAAAHPDSEEQQQRSREAAEGSRMATNAAAQNAIKK
notes: 11 residue linker between the N-terminal His6-tag and the talin fragment; talin-1, mouse, R3 subdomain, residues 795-911, with all four destabilizing point mutations; not shown: His6, N-terminal, kept
  stoichiometry N: 2
